Results: patent US11833164B2, “Methods of treating Fabry disease in patients having a mutation in the GLA gene” (Amicus Therapeutics, Inc., priority 2019, dated 2023)

Test system: mutant form of α-Gal A expressed in HEK-293 cells
Test: HEK assay (GLP HEK / Migalastat Amenability Assay): α-Gal A activity in lysates of transiently transfected HEK-293 cells incubated with or without 10 μM migalastat
Type: cell-based, human
Details: for Absolute increase (% WT) / Relative increase: 10 μM migalastat versus baseline; for Baseline α-Gal A activity (% WT): absence of migalastat; for Baseline α-Gal A activity (% WT) / 10 μM migalastat α-Gal A activity (% WT): percentage of baseline wild-type α-Gal A activity; for Baseline α-Gal A activity (% WT) / Baseline α-Gal A activity / 10 μM migalastat α-Gal A activity / 10 μM migalastat α-Gal A activity (% WT): mean ± SEM; for Baseline α-Gal A activity / 10 μM migalastat α-Gal A activity: lysates of HEK-293 cells transiently transfected with the mutant form; for Baseline α-Gal A activity: incubated 5 days in absence of migalastat; for 10 μM migalastat α-Gal A activity: incubated 5 days with 10 μM migalastat; for 10 μM migalastat α-Gal A activity (% WT): with 10 μM migalastat, 5 days
Outline: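 Activity reported as 4-MU released (nmol/mg/hr), mean±SEM, from lysates of transiently transfected HEK-293 cells expressing mutant α-Gal A, cultured with or without 10 μM migalastat.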

Molecule | Absolute increase (% WT) | Relative increase | Baseline α-Gal A activity (% WT) | Baseline α-Gal A activity | 10 μM migalastat α-Gal A activity | 10 μM migalastat α-Gal A activity (% WT)
I289V (protein) MQLRNPELHLGCALALRFLALVSWDIPGARALDNGLARTPTMGWLHWERFMCNLDCQEEPDSCISEKLFMEMAELMVSEGWKDAGYEYLCIDDCWMAPQRDSEGRLQADPQRFPHGIRQLANYVHSKGLKLGIYADVGNKTCAGFPGSFGYYDIDAQTFADWGVDLLKFDGCYCDSLENLADGYKHMSLALNRTGRSIVYSCEWPLYMWPFQKPNYTEIRQYCNHWRNFADIDDSWKSIKSILDWTSFNQERIVDVAGPGGWNDPDMLVIGNFGLSWNQQVTQMALWAVMAAPLFMSNDLRHISPQAKALLQDKDVIAINQDPLGKQGYQLRQGDNFEVWERPLSGLAWAVAMINRQEIGGPRSYTIAVASLGKGVACNPACFITQLLPVKRKLGFYEWTSRLRSHINPTGTVLLQLENTMQMSLKDLL | 13.6 % WT | 1.2 | 61.2 ± 3.2 % WT | 25845 ± 1706 nmol/mg/h | 31489 ± 1397 nmol/mg/h | 74.8 ± 2.7 % WT
A292G (protein) MQLRNPELHLGCALALRFLALVSWDIPGARALDNGLARTPTMGWLHWERFMCNLDCQEEPDSCISEKLFMEMAELMVSEGWKDAGYEYLCIDDCWMAPQRDSEGRLQADPQRFPHGIRQLANYVHSKGLKLGIYADVGNKTCAGFPGSFGYYDIDAQTFADWGVDLLKFDGCYCDSLENLADGYKHMSLALNRTGRSIVYSCEWPLYMWPFQKPNYTEIRQYCNHWRNFADIDDSWKSIKSILDWTSFNQERIVDVAGPGGWNDPDMLVIGNFGLSWNQQVTQMALWAIMAGPLFMSNDLRHISPQAKALLQDKDVIAINQDPLGKQGYQLRQGDNFEVWERPLSGLAWAVAMINRQEIGGPRSYTIAVASLGKGVACNPACFITQLLPVKRKLGFYEWTSRLRSHINPTGTVLLQLENTMQMSLKDLL | 24.3 % WT | 1.6 | 41.1 ± 2.2 % WT | 12091 ± 652 nmol/mg/h | 19406 ± 1361 nmol/mg/h | 65.3 ± 4 % WT
L294I (protein) MQLRNPELHLGCALALRFLALVSWDIPGARALDNGLARTPTMGWLHWERFMCNLDCQEEPDSCISEKLFMEMAELMVSEGWKDAGYEYLCIDDCWMAPQRDSEGRLQADPQRFPHGIRQLANYVHSKGLKLGIYADVGNKTCAGFPGSFGYYDIDAQTFADWGVDLLKFDGCYCDSLENLADGYKHMSLALNRTGRSIVYSCEWPLYMWPFQKPNYTEIRQYCNHWRNFADIDDSWKSIKSILDWTSFNQERIVDVAGPGGWNDPDMLVIGNFGLSWNQQVTQMALWAIMAAPIFMSNDLRHISPQAKALLQDKDVIAINQDPLGKQGYQLRQGDNFEVWERPLSGLAWAVAMINRQEIGGPRSYTIAVASLGKGVACNPACFITQLLPVKRKLGFYEWTSRLRSHINPTGTVLLQLENTMQMSLKDLL | 53.6 % WT | 3.2 | 24.8 ± 2.4 % WT | 8345 ± 717 nmol/mg/h | 26761 ± 1915 nmol/mg/h | 78.4 ± 6 % WT
A292S (protein) MQLRNPELHLGCALALRFLALVSWDIPGARALDNGLARTPTMGWLHWERFMCNLDCQEEPDSCISEKLFMEMAELMVSEGWKDAGYEYLCIDDCWMAPQRDSEGRLQADPQRFPHGIRQLANYVHSKGLKLGIYADVGNKTCAGFPGSFGYYDIDAQTFADWGVDLLKFDGCYCDSLENLADGYKHMSLALNRTGRSIVYSCEWPLYMWPFQKPNYTEIRQYCNHWRNFADIDDSWKSIKSILDWTSFNQERIVDVAGPGGWNDPDMLVIGNFGLSWNQQVTQMALWAIMASPLFMSNDLRHISPQAKALLQDKDVIAINQDPLGKQGYQLRQGDNFEVWERPLSGLAWAVAMINRQEIGGPRSYTIAVASLGKGVACNPACFITQLLPVKRKLGFYEWTSRLRSHINPTGTVLLQLENTMQMSLKDLL | 21.3 % WT | 1.3 | 68.6 ± 2.9 % WT | 18002 ± 1127 nmol/mg/h | 23779 ± 1584 nmol/mg/h | 89.9 ± 3.4 % WT
F295I (protein) MQLRNPELHLGCALALRFLALVSWDIPGARALDNGLARTPTMGWLHWERFMCNLDCQEEPDSCISEKLFMEMAELMVSEGWKDAGYEYLCIDDCWMAPQRDSEGRLQADPQRFPHGIRQLANYVHSKGLKLGIYADVGNKTCAGFPGSFGYYDIDAQTFADWGVDLLKFDGCYCDSLENLADGYKHMSLALNRTGRSIVYSCEWPLYMWPFQKPNYTEIRQYCNHWRNFADIDDSWKSIKSILDWTSFNQERIVDVAGPGGWNDPDMLVIGNFGLSWNQQVTQMALWAIMAAPLIMSNDLRHISPQAKALLQDKDVIAINQDPLGKQGYQLRQGDNFEVWERPLSGLAWAVAMINRQEIGGPRSYTIAVASLGKGVACNPACFITQLLPVKRKLGFYEWTSRLRSHINPTGTVLLQLENTMQMSLKDLL | 25.7 % WT | 1.3 | 78.3 ± 4.5 % WT | 26687 ± 1470 nmol/mg/h | 35634 ± 2203 nmol/mg/h | 104.1 ± 6.6 % WT
L294F (protein) MQLRNPELHLGCALALRFLALVSWDIPGARALDNGLARTPTMGWLHWERFMCNLDCQEEPDSCISEKLFMEMAELMVSEGWKDAGYEYLCIDDCWMAPQRDSEGRLQADPQRFPHGIRQLANYVHSKGLKLGIYADVGNKTCAGFPGSFGYYDIDAQTFADWGVDLLKFDGCYCDSLENLADGYKHMSLALNRTGRSIVYSCEWPLYMWPFQKPNYTEIRQYCNHWRNFADIDDSWKSIKSILDWTSFNQERIVDVAGPGGWNDPDMLVIGNFGLSWNQQVTQMALWAIMAAPFFMSNDLRHISPQAKALLQDKDVIAINQDPLGKQGYQLRQGDNFEVWERPLSGLAWAVAMINRQEIGGPRSYTIAVASLGKGVACNPACFITQLLPVKRKLGFYEWTSRLRSHINPTGTVLLQLENTMQMSLKDLL | 38.8 % WT | 2.3 | 29.6 ± 3 % WT | 10147 ± 971 nmol/mg/h | 23486 ± 2100 nmol/mg/h | 68.4 ± 6.5 % WT
L294V (protein) MQLRNPELHLGCALALRFLALVSWDIPGARALDNGLARTPTMGWLHWERFMCNLDCQEEPDSCISEKLFMEMAELMVSEGWKDAGYEYLCIDDCWMAPQRDSEGRLQADPQRFPHGIRQLANYVHSKGLKLGIYADVGNKTCAGFPGSFGYYDIDAQTFADWGVDLLKFDGCYCDSLENLADGYKHMSLALNRTGRSIVYSCEWPLYMWPFQKPNYTEIRQYCNHWRNFADIDDSWKSIKSILDWTSFNQERIVDVAGPGGWNDPDMLVIGNFGLSWNQQVTQMALWAIMAAPVFMSNDLRHISPQAKALLQDKDVIAINQDPLGKQGYQLRQGDNFEVWERPLSGLAWAVAMINRQEIGGPRSYTIAVASLGKGVACNPACFITQLLPVKRKLGFYEWTSRLRSHINPTGTVLLQLENTMQMSLKDLL | 33.8 % WT | 9.0 | 4.4 ± 0.3 % WT | 1452 ± 71 nmol/mg/h | 13038 ± 880 nmol/mg/h | 38.2 ± 2.7 % WT
A291G (protein) MQLRNPELHLGCALALRFLALVSWDIPGARALDNGLARTPTMGWLHWERFMCNLDCQEEPDSCISEKLFMEMAELMVSEGWKDAGYEYLCIDDCWMAPQRDSEGRLQADPQRFPHGIRQLANYVHSKGLKLGIYADVGNKTCAGFPGSFGYYDIDAQTFADWGVDLLKFDGCYCDSLENLADGYKHMSLALNRTGRSIVYSCEWPLYMWPFQKPNYTEIRQYCNHWRNFADIDDSWKSIKSILDWTSFNQERIVDVAGPGGWNDPDMLVIGNFGLSWNQQVTQMALWAIMGAPLFMSNDLRHISPQAKALLQDKDVIAINQDPLGKQGYQLRQGDNFEVWERPLSGLAWAVAMINRQEIGGPRSYTIAVASLGKGVACNPACFITQLLPVKRKLGFYEWTSRLRSHINPTGTVLLQLENTMQMSLKDLL | 34.9 % WT | 2.3 | 26.6 ± 1.5 % WT | 6953 ± 474 nmol/mg/h | 16073 ± 954 nmol/mg/h | 61.5 ± 2.6 % WT
F295S (protein) MQLRNPELHLGCALALRFLALVSWDIPGARALDNGLARTPTMGWLHWERFMCNLDCQEEPDSCISEKLFMEMAELMVSEGWKDAGYEYLCIDDCWMAPQRDSEGRLQADPQRFPHGIRQLANYVHSKGLKLGIYADVGNKTCAGFPGSFGYYDIDAQTFADWGVDLLKFDGCYCDSLENLADGYKHMSLALNRTGRSIVYSCEWPLYMWPFQKPNYTEIRQYCNHWRNFADIDDSWKSIKSILDWTSFNQERIVDVAGPGGWNDPDMLVIGNFGLSWNQQVTQMALWAIMAAPLSMSNDLRHISPQAKALLQDKDVIAINQDPLGKQGYQLRQGDNFEVWERPLSGLAWAVAMINRQEIGGPRSYTIAVASLGKGVACNPACFITQLLPVKRKLGFYEWTSRLRSHINPTGTVLLQLENTMQMSLKDLL | 10.5 % WT | 16.8 | 0.6 ± 0.1 % WT | 230 ± 45 nmol/mg/h | 3847 ± 309 nmol/mg/h | 11.1 ± 0.9 % WT
